Tests used:
[1] = tested on: MBP-#γA (5-finger artificial zinc finger protein) (artificial); test: EMSA
[2] = tested on: MBP-#γA-opt (5-finger artificial zinc finger protein) (artificial); test: EMSA
[3] = tested on: gg1 (6-finger artificial zinc finger protein) (artificial); settings: cited from earlier work

Row | Sequence | Kd [1] [nM] | Kd [2] [nM] | Kd [3] [nM]
1 | GATGCCGTTTGAGGT (double strand) [γ-globin promoter #γA target site] | 3.2 | 7.1 | –
2 | GTCAAGGCAAGGCTGGCC (double strand) [gg1 target site in γ-globin promoter] | – | – | 0.7

Reference: article PMC2880176
